# Measured values as given in article PMC6208296, “Redox regulation of pyruvate kinase M2 by cysteine oxidation and S-nitrosation” (Biochemical Journal, 2018).
# B1: M2PYK C424A (enzyme)
# chain: not shown
# notes: pyruvate kinase, M2 isoform (M2PYK), human, point mutant made on pET28a-M2PYK; Made by QuikChange on pET28a-M2PYK; no step that removes the His tag is described; source: E. coli BL21, purified (cobalt IMAC, Superdex 200 gel filtration)
# B2: M2PYK C358S (enzyme)
# chain: not shown
# notes: pyruvate kinase, M2 isoform (M2PYK), human, point mutant made on pET28a-M2PYK; Made by QuikChange on pET28a-M2PYK; no step that removes the His tag is described; also called Cys358Ser; MPYK C358S; source: E. coli BL21, purified (cobalt IMAC, Superdex 200 gel filtration)
# B3: M2PYK C326S (enzyme)
# chain: not shown
# What was measured:
# [1] = target: the molecule itself; test: crystal structure; hanging drop vapour diffusion, 10 mg/ml protein with 5 mM of each ligand, PEG 3350, sodium cacodylate pH 6, 50 mM MgCl2, 100 mM KCl; 18°C (C424A, with F-1,6-BP, oxalate and ATP) or 4°C (C358S)
# [2] = target: the molecule itself; test: SEC; analytical gel filtration, Superdex 200 PC 3.2/30 in PBS-CM, room temperature; 0.1 mg/ml incubated 12 h (equilibrium) without or with 1 mM DTT or 20 μM H2O2; tetramer to monomers, peak areas on a bimodal distribution
# [3] = target: the molecule itself; test: cell-based or functional assay
protein,measurement,setting,value
B1,binding result,[1],binds
B2,stoichiometry N,[2],4
B3,"enzymatic activity, LDH-coupled assay, without F-1,6-BP, relative to M2PYK WT",[3],~20 % of WT activity
